The source of these data is patent US6699656B2, “Treatment and prevention of HIV infection by administration of derivatives of human chorionic gonadotropin” (University of Maryland Biotechnology Institute, priority 1996, dated 2004).

Experiment [1] deals with HIV-1. As to conditions: p24 antigen days 3 to 10; peptides 0.05 to 50 nmoles/ml, hCG 0.01 to 1,000 IU, native β-hCG 100 to 1,000 μg. How it is done: Sequences of the peptides are as follows:
HIV-1 infected cells were treated with the above preparations and the virus was measured.

The subject of experiment [2] is hematopoietic progenitor cells. In words: Hematopoietic progenitor colony assays (CFU-MIX, BFU-e, CFU-GM). The experiment is classed as cell-based. The conditions noted are these: bone marrow and cord blood; hCG 200 IU/ml, peptides and subunits 100 μg/ml; 10 days. From the text:
Hematopoietic progenitor cells (2×10^5 cell/ml) were isolated from normal bone marrow and cord blood and seeded in methylcellulose. […] Aggregates containing more than 50 cells after 10 days of culture were counted as colonies.

Another experiment concerns Kaposi's Sarcoma. The conditions noted are these: literature; cited from earlier work.
In experiment [3] the test system is HIV-1. As to conditions: higher doses increased viral production; cited from earlier work.
A further experiment has as its system KS Y-1 or KS-SLK cells. Description: KS clonogenic assay. The experiment is classed as cell-based, human. As to conditions: 2 KS cell lines; peptides 50 nmoles/ml, CR127 2 nmoles/ml; 10 days. How it is done:
Briefly, the KS Y-1 cells were obtained from mononuclear cells isolated from pleural effusion of an AIDS patient with KS involving the lungs. After the depletion of T lymphocytes, monocytes/macrophages and fibroblasts by the cytotoxicity method, using monoclonal antibodies against CD2, CD3, CD4, CD8, CD10 and CD14 membrane antigens and baby rabbit complement, the cells were cultured in the absence of exogenous growth factors to select for transformed cells.

B1: partially purified native β-hCG (NβhCG): partially purified native β-hCG dissociated from hCG, Sigma (protein, UniProt P0DN86 21-165, looked up)
Choriogonadotropin subunit …: SKEPLRPRCRPINATLAVEKEGCPVCITVNTTICAGYCPTMTRVLQGVLPALPQVVCNYRDVRFESIRLPGCPRGVNPVVSYAVALSCQCALCRRSTTDCGGPKDHPLTCDDPRFQDSSSSKAPPPSLPSPSRLPGPSDTPILPQ
For B1, in the experiment on HIV-1 [1], the “inhibition of HIV-1 infection/replication in acutely infected cells” value is listed as “active”. Also, the “growth of hematopoietic progenitors (colonies)” value in experiment [2] is recorded as “directly promoted”.

B2: β-hCG: β-subunit of hCG as reported in the literature (protein, UniProt P0DN86 21-165, looked up)
Choriogonadotropin subunit …: SKEPLRPRCRPINATLAVEKEGCPVCITVNTTICAGYCPTMTRVLQGVLPALPQVVCNYRDVRFESIRLPGCPRGVNPVVSYAVALSCQCALCRRSTTDCGGPKDHPLTCDDPRFQDSSSSKAPPPSLPSPSRLPGPSDTPILPQ
For B2, the “efficacy in the treatment of Kaposi's Sarcoma” value in the experiment with Kaposi's Sarcoma is “efficacious”. In the experiment with HIV-1 [3], the “doses reducing HIV production in monocytes” value is not above 10 µg/mL.

B3: recombinant β-hCG: purified recombinant β-chain of hCG (protein, UniProt P0DN86 21-165, looked up)
Choriogonadotropin subunit …: SKEPLRPRCRPINATLAVEKEGCPVCITVNTTICAGYCPTMTRVLQGVLPALPQVVCNYRDVRFESIRLPGCPRGVNPVVSYAVALSCQCALCRRSTTDCGGPKDHPLTCDDPRFQDSSSSKAPPPSLPSPSRLPGPSDTPILPQ
Regarding B3, in the experiment on HIV-1 [1], the “inhibition of HIV-1 infection/replication in acutely infected cells” value is given as “not to be active”. For the same molecule, in the experiment with KS Y-1 or KS-SLK cells, the “anti-KS effect in clonogenic assays (number of colonies)” value was “no anti-KS effect”.
